Laboratory results: the supplement of paper PMC10724198
± gives the standard deviation of the averaged measurements.

Tested on: Saccharomyces cerevisiae
Assay: protein stability index of tFT-peptide fusion (C-terminal peptide) (PSI (0-1 scale)); higher = more stable (slower turnover)
Details: temperature: 30 C
Method: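 MPS profiling in S. cerevisiae of the yeast C-terminome library: the last 12 aa of each annotated ORF are fused to the C-terminus of a sfGFP-mCherry timer, after a GGGS linker. Cells are FACS-sorted into 8 mCherry/sfGFP bins and deep-sequenced. PSI runs from 0 (unstable) to 1 (stable); wild type and das1Δ backgrounds, two technical replicates each.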

[1] = genetic background: das1 deletion

Sequence | protein stability index [1] | protein stability index (genetic background: wild type)
DEFCSQRSYTRF [MIN7 C-terminal 12 aa] | 0.716 ± 0.042 | 0.701 ± 0.032
DEQGNELSPRNY [MID2 C-terminal 12 aa] | 0.69199 ± 0.00026 | 0.723 ± 0.035
DFFDYDLLFQND [PIP2 C-terminal 12 aa] | 0.767 ± 0.021 | 0.788 ± 0.034
DFSKFKDSRLYD [YND1 C-terminal 12 aa] | 0.688 ± 0.034 | 0.671 ± 0.01
DGGLAGPVTVRD [FMP45 C-terminal 12 aa] | 0.6903 ± 0.005 | 0.713 ± 0.048
DGSADLGGWETM [UBR2 C-terminal 12 aa] | 0.732 ± 0.026 | 0.733 ± 0.048
DIIKSIGDSYSI [NSE3 C-terminal 12 aa] | 0.69 ± 0.03 | 0.734 ± 0.076
DIYEIRGTALDD [DSL1 C-terminal 12 aa] | 0.6986 ± 0.0054 | 0.699 ± 0.052
DKKVNNNIILFL [YAL037C-A C-terminal 12 aa] | 0.692 ± 0.042 | 0.704 ± 0.011
DLEGVLWRSYYA [BLM10 C-terminal 12 aa] | 0.744 ± 0.008 | 0.711 ± 0.0089
DLIESTFRSITQ [PAN3 C-terminal 12 aa] | 0.7194 ± 0.0067 | 0.7049 ± 0.0029
DLLDKDVLLISE [CDC7 C-terminal 12 aa] | 0.706 ± 0.0095 | 0.6734 ± 0.0014
DLSLVFGNHEST [HEM15 C-terminal 12 aa] | 0.694 ± 0.038 | 0.727 ± 0.02
DNEGSRKMLKIE [CIN8 C-terminal 12 aa] | 0.6613 ± 0.0033 | 0.662 ± 0.042
DNKPKLSDVEKD [GEA2 C-terminal 12 aa] | 0.698 ± 0.019 | 0.707 ± 0.017
DNQPWQLARCGR [HRT1 C-terminal 12 aa] | 0.698 ± 0.015 | 0.718 ± 0.014
DPEPPKEDPHDH [TCP1 C-terminal 12 aa] | 0.706 ± 0.0085 | 0.704 ± 0.051

Sequence | protein stability index [1] | protein stability index (genetic background: wild type)
DQAAKTFVIKKD [MDM38 C-terminal 12 aa] | 0.703 ± 0.019 | 0.668 ± 0.028
DQFQKVEKSIVK [RRF1 C-terminal 12 aa] | 0.69 ± 0.02 | 0.675 ± 0.061
DQLEDTSSHDEL [MPD2 C-terminal 12 aa] | 0.7476 ± 0.0003 | 0.7 ± 0.025
DSDADIEELLEE [PGA2 C-terminal 12 aa] | 0.696 ± 0.015 | 0.689 ± 0.046
DSEDDEDESDDE [SUI2 C-terminal 12 aa] | 0.689 ± 0.036 | 0.717 ± 0.094
DSFIPLQPKKKI [YML037C C-terminal 12 aa] | 0.684 ± 0.05 | 0.684 ± 0.015
DSVEMKFDKLNI [RBS1 C-terminal 12 aa] | 0.6821 ± 0.0029 | 0.748 ± 0.085
DTDGAKISIINN [FKH2 C-terminal 12 aa] | 0.7019 ± 0.0064 | 0.7033 ± 0.002
DVEDVLIDTLCN [PEX22 C-terminal 12 aa] | 0.723 ± 0.019 | 0.678 ± 0.03
DVEIDEDEEYFY [SPO12 C-terminal 12 aa] | 0.707 ± 0.0084 | 0.71 ± 0.01
DVYVLFYERVYD [UBP7 C-terminal 12 aa] | 0.682 ± 0.036 | 0.682 ± 0.03
DWLIDVIKEEQL [ARL1 C-terminal 12 aa] | 0.728 ± 0.051 | 0.695 ± 0.028
EADFRKRFPSKV [PRK1 C-terminal 12 aa] | 0.694 ± 0.0081 | 0.669 ± 0.021
EAGDSDILTTLA [RPL30 C-terminal 12 aa] | 0.706 ± 0.024 | 0.687 ± 0.0078
EAQLSSNDEPLP [YCR102W-A C-terminal 12 aa] | 0.6904 ± 0.004 | 0.721 ± 0.089
ECPSVPPTVRAY [SDH1 C-terminal 12 aa] | 0.528 ± 0.011 | 0.55 ± 0.0063
EDGDNWEVVGKK [TIF3 C-terminal 12 aa] | 0.7056 ± 0.0056 | 0.727 ± 0.012
